In general, stoichiometry N refers to a count of units in the complex or per binding partner.

These results are taken from PMC10709299.

The experiment addresses G6PD Meyer (Arg219Gly) (human) (UniProt P11413). Nature of the experiment: SEC; Superdex 200 Increase 10/300, 100 µg recombinant protein loaded, 50 mM Tris-HCl pH 7.5, 150 mM NaCl, 0.5 ml/min; column calibrated with Gel Filtration Standard (Biorad). On the technique in general: SEC sorts molecules by how far they enter the pores of the column.

Turning to “G6PD Meyer (Arg219Gly) (from UniProt P11413-3 1-545) (enzyme)”, the stoichiometry N amounted to 2.
